According to PMC4938799, “LD Motif Recognition by Talin: Structure of the Talin-DLC1 Complex” (Structure(London, England:1993), 2016):

System: endogenous RIAM
Assay: GST pull-down of endogenous RIAM in A549 cells
Assay type: cell-based, human
Conditions: A549 cell extracts, anti-RIAM immunoblot
From the text: However, as talin R8 interacts with RIAM ([Goult et al., 2013b]) and paxillin (shown here) in addition to DLC1, we used several approaches to evaluate whether binding of talin R8 to endogenous RIAM or paxillin might have contributed to the observed results. For RIAM, the level of expression in the cell lines used here varied from very low to undetectable. To detect RIAM protein in any of the cell extracts, we had to use an anti-RIAM immunoprecipitation step followed by anti-RIAM immunoblotting. Using these conditions, endogenous RIAM was detected in A549 and H358 cells, but not in 293T cells (Figure S5A).
Figure S5, related to figure 6. […]
form a detectable complex with GST-talin R8.
(A) The expression of endogenous RIAM in cell lines. Cell extracts were subjected to immunoprecipitation followed by immunoblotting with anti-RIAM antibody.
(B) A complex between GST-talin R8 and endogenous RIAM is undetectable in A549 cells.
A549 cells were co-transfected with GFP-DLC1 and the GST constructs indicated. Cell extracts were subject to a glutathione bead pull down assay followed by immunoblotting with anti-GST and anti-RIAM antibodies on the same membrane (left). No complex between GST-talin R8 and RIAM could be detected. Under the same conditions, wild-type GST-R8 pulled-down the co-transfected GFP-DLC1; the immunoblot with anti-GST and anti-DLC1 on the same membrane is shown (right). […]

B1: GST-R8: GST-tagged talin R8, amino acids 1,453–1,580 (protein)
chain: NSQAGQQGLVEPTQFARANQAIQMACQSLGEPGCTQAQVLSAATIVAKHTSALCNSCRLASARTANPTAKRQFVQSAKEVANSTANLVKTIKALDGDFTEENRAQCRAATAPLLEAVDNLSAFASNPE
modifications: left off: GST, end not stated, kept
complex with endogenous RIAM: did not detect a GST-R8 complex
complex with endogenous RIAM (listed as GST-talin R8): undetectable
